Data taken from patent US20140178935A1 (AVEO PHARMACEUTICALS, published 2014).

Key:
[1] = biological target: T1, recombinant human HGF (R&D Systems, Catalog No. 294-HGN-025) (human, UniProt P14210 32-728); assay: SPR, captured antibody, HGF injected, 25 C
T1 construct: Mature HGF is a disulfide-linked heterodimer of alpha and beta chain cut from one precursor; also called rhHGF (R&D Systems); rhHGF
Protocol: (§1) Mouse anti-human immunoglobulins (Jackson Labs, Catalog No. 209-005) were immobilized on carboxymethylated dextran CM4 sensor chips (BIAcore, Catalog No. BR-1006-68) by amine coupling (BIAcore, Catalog No. BR-1000-50) using a standard coupling protocol according to manufacturer's instructions. The analyses were performed at 25° C. using PBS (GIBCO, Catalog No. 14040-133) containing 0.05% surfactant P20 (BIAcore, Catalog No. BR-1000-54), and 2 mg/mL BSA (EMD, Catalog No. 2930).
(§2) The antibodies were captured in an individual flow cell at a flow rate of 10 μL/min. Injection time was variable for each antibody to yield approximately 20 RU of antibody captured for each cycle. […] The dissociation phase was monitored for 15 or 90 minutes, depending on concentration. The surface then was regenerated with 10 mM Glycine-HCl, pH 2.2 (BIAcore, Catalog No. BR-1003-54) injected for 3 minutes at a flow rate of 60 μL/min before another cycle was initiated.
Kinetic parameters were determined using the kinetic function of the BIAevalutation™ software with reference subtraction.

[2] = biological target: T1, recombinant human HGF (R&D Systems, …); assay: SPR, captured antibody, HGF injected, 25 C; remark: listed apart in the source
Protocol: as §1, with “209-005) or rabbit anti-mouse immunoglobulins (BIAcore, Catalog No. BR-1005-14)” for “209-005)”, “instructions. […]” for “instructions.”, “25° C. and 37°” for “25°”, “2930) as running buffer.” for “2930).”
as §2, with “[…].” for “μL/min.”, “surface of mouse anti-human immunoglobulins sensor chips was” for “surface”, “then” for “then was”, “initiated. The surface of rabbit anti-mouse immunoglobulins sensor chips was regenerated with 10 mM Glycine-HCl, pH 1.7 (BIAcore, Catalog No. BR-1003-54) injected for 3 minutes at a flow rate of 60 μL/min before another cycle was initiated.” for “initiated.”
Kinetic parameters were determined using the kinetic function of the BIAevaluation software with reference subtraction.

[3] = biological target: T1, recombinant human HGF (R&D Systems, …); assay: SPR (BIAcore T100), antibody captured on mouse anti-human immunoglobulin CM4 chip, HGF 1.88, 3.75 and 7.5 nM injected, 25 C; three independent experiments
Protocol: Antigen-binding affinity and kinetics of interaction were assessed by surface plasmon resonance technology using a BIAcore T100 instrument. Mouse anti-human immunoglobulins (Jackson ImmunoResearch Labs, 209-005-098) were immobilized on carboxymethylated dextran CM4 sensor chips (BIAcore, Catalog No. BR-1005-34) by amine coupling (BIAcore, Catalog No. BR-1000-50) using a standard coupling protocol according to manufacturer's recommendations. The analyses were performed at 25° C. using PBS (GIBCO, Catalog No. 14040-133) containing 0.05% surfactant P20 (BIAcore, Catalog No. BR-1000-54), 2 mg/mL BSA (EMD, Catalog No. 2930) and 10 mg/mL CM-Dextran Sodium salt (Fluka, Catalog No. 86524) as running buffer.
as §2, with “on” for “in an”, “2.0” for “2.2”, “BR-1003-55)” for “BR-1003-54)”, “initiated. […] Determination of kinetic parameters was achieved using the kinetic function of the BIAevalutation software with reference subtraction.” for “initiated.”

T1 sequence (P14210 32-728 limits assumed): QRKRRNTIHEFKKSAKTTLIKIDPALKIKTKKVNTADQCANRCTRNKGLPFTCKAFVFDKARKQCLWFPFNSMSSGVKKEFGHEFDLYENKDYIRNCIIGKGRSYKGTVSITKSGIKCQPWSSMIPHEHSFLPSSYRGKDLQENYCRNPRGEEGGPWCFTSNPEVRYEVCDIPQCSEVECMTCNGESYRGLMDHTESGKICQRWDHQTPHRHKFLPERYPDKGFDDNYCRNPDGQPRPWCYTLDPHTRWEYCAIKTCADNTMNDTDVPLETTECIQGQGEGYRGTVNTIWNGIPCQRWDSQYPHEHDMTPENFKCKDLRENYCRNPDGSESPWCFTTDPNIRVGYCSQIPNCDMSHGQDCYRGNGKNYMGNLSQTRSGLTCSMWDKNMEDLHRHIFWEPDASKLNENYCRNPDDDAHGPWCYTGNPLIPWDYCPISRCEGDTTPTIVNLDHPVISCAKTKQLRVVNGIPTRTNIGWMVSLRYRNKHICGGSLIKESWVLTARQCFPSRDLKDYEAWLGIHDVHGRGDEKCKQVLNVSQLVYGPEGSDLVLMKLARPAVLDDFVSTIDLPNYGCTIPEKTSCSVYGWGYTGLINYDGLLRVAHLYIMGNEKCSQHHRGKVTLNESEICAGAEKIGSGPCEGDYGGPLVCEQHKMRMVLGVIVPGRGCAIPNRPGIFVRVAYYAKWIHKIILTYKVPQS

Kd [1]: 8.1 pM
koff [1]: 1.7e-05 s⁻¹
kon [1]: 2e+06 M⁻¹ s⁻¹
Kd [2]: 8.1 pM
koff [2]: 1.7e-05 s⁻¹
kon [2]: 2e+06 M⁻¹ s⁻¹
Kd [3]: 8.1 pM
koff [3]: 1.7e-05 s⁻¹
kon [3]: 2e+06 M⁻¹ s⁻¹
B1: sh2B8-9 (G1m(17,1)) = hu2B8 Hv5-51.1 + IgG1 constant region (G1m(17,1) allotype) plus hu2B8 Kv1-39.1 + Kappa constant region (Km(3) allotype, allele 2) (antibody)
heavy: not shown
light: DIQMTQSPSSLSASVGDRVTITCKASENVVSYVSWYQQKPGKAPKLLIYGASNRNTGVPSRFSGSGSGTDFTLTISSLQPEDFATYYCGQSYNYPYTFGQGTKLEIKRTVAAPSVFIFPPSDEQLKSGTASVVCLLNNFYPREAKVQWKVDNALQSGNSQESVTEQDSKDSTYSLSSTLTLSKADYEKHKVYACEVTHQGLSSPVTKSFNRGEC
